Experimental data taken from patent US20190016826A1 (Genentech, published 2019).

Tests used:
[1] = molecular target: T1, Full length human HtrA1 (HuHtrA1) (Q23-P480), N-terminal His6 tag (human, UniProt Q92743 23-480); experiment: SPR (BIAcore T100), single-cycle kinetics, biotinylated human HtrA1 captured on streptavidin, Fab in solution
T1 construct: Expressed in Trichoplusia ni insect cells
Source text: To determine the binding affinity of HtrA1 antibodies by single cycle kinetics, Surface Plasmon Resonance (SRP) measurement with a BIAcore™ T100 instrument was used. Briefly, a series S sensor chip CM5 was activated with EDC and NHS reagents according to the supplier's instructions, and streptavidin (Pierce) was coupled to achieve approximately 2000 response units (RU), followed by blocking un-reacted groups with 1M ethanolamine.
For kinetics measurements, biotinylated human or murine HtrA1 was first injected at 10 ul/min flow rate to capture approximately 100 RU at 3 different flow cells (FC), except for FC1 (reference), and then 5-fold serial dilutions of anti-HtrA1 Fab in HBS-P buffer (0.01M HEPES pH 7.4, 0.15M NaCl, 0.005% surfactant P20) from low (0.48 nM) to high (300 nM) [5 points] were injected (flow rate: 30 μl/min) one after the other in the same cycle with no regeneration between injections. The sensorgram was recorded and subject to reference and buffer subtraction before evaluation by BIAcore™ T100 Evaluation Software (version 2.0). Association rates (km) and dissociation rates (koff) were calculated using a simple one-to-one Langmuir binding model. The equilibrium dissociation constant (Kd) was calculated as the ratio koff/kₒₙ.

K191A = molecular target: T2, K191A; experiment: ELISA on plate-coated HuHtrA1_PD mutants (Example 7); column head on the sheet reads YW505.94 Fab, legend paragraph 70 says IgG94
T2 construct: also called HuHtrA1_PD(K191A)
Protocol: (§1) The mutants were expressed in E. coli and the trimers purified by size exclusion chromatography as described in Example 2. Binding was determined using an ELISA assay, which was conducted using a MAXISORP™ microtiter plate coated with HuHtrA1_PD mutants at 2 μg/ml in PBS for 1 h, followed by blocking with PBST buffer (0.5% BSA and 0.05% Tween 20 in PBS) for 1 h at room temperature. […] The plates were washed with PBT buffer (0.05% Tween 20 in PBS), and HRP-conjugated goat anti-human IgG (H+L) (Invitrogen) was added (1:5000 in PBST buffer) and incubated for 1 h. The plates were washed with PBT buffer and developed by adding tetramethylbenzidine substrate (Kirkegaard and Perry Laboratories, Gaithersburg, Md.). The absorbance at 450 nm was plotted as a function of antibody concentration in solution to determine EC₅₀ values.
(§2) In trypsin-like serine proteases these loops are known to be part of the specificity determining region that interacts with substrates.

R227A = molecular target: T3, R227A; experiment: as above
T3 construct: also called HuHtrA1_PD(R227A)
Protocol: as §1, §2

D244A = molecular target: T4, D244A; experiment: as above
T4 construct: also called HuHtrA1_PD(D244A)
Protocol: as §1, §2

K248A = molecular target: T5, K248A; experiment: as above
T5 construct: also called HuHtrA1_PD(K248A)
Protocol: as §1, §2

D250A = molecular target: T6, D250A; experiment: as above
T6 construct: also called HuHtrA1_PD(D250A)
Protocol: as §1, §2

Y325A = molecular target: T7, Y325A; experiment: as above
T7 construct: also called HuHtrA1_PD(Y325A)
Protocol: as §1, §2

[2] = molecular target: T8, HuHtrA1_PD(S328A), catalytically inactive protease domain of human HtrA1 (human, UniProt F1N152 168-386 (bovine entry)); experiment: as above
T8 construct: Trimer; not shown: thrombin cleavage site
T8 chain: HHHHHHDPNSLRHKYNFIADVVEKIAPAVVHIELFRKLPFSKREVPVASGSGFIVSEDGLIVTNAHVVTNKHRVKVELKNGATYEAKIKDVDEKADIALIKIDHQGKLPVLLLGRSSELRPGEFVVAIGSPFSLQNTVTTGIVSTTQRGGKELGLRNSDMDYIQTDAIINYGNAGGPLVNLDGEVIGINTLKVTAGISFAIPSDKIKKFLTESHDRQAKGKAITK
Protocol: as §1, §2

HuHtrA1_PD(K243A) = molecular target: T9, HuHtrA1_PD(K243A) (human, UniProt F1N152 168-386 (bovine entry)); experiment: as above
T9 construct: Alanine mutant of HuHtrA1_PD; also called HuHtrA1 mutant K243A; not shown: thrombin cleavage site
T9 chain: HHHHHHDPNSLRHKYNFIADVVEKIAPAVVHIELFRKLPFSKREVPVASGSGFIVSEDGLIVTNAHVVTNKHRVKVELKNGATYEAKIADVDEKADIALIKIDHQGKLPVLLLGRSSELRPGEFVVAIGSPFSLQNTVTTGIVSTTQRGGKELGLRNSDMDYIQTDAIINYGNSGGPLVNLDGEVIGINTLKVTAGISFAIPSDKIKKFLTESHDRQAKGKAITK
Protocol: as §1, §2

T1 sequence (Q92743 other isoform, or with tags, fused parts or gaps): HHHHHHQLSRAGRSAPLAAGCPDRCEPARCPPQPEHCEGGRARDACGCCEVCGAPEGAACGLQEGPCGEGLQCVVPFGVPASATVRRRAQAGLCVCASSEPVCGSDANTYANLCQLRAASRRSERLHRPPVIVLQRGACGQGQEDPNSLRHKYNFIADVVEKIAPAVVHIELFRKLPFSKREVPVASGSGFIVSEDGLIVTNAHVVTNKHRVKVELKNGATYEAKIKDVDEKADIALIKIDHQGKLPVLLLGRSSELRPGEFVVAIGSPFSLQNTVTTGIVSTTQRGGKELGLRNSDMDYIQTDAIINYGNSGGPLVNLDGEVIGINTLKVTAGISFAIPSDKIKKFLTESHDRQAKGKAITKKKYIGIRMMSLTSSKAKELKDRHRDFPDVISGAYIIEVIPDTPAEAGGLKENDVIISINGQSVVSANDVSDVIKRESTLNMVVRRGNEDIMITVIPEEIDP

B1: Fab94 (anti-HtrA1 antibody YW505.94, Fab format) (Fab, V domains shown)
VH: EVQLVESGGGLVQPGGSLRLSCAASGFNISGYYIHWVRQAPGKGLEWVGWIDPYGGDTNYADSVKGRFTISADTSKNTAYLQMNSLRAEDTAVYYCARGTFLTSWGHYFDYWGQGT
VL: DIQMTQSPSSLSASVGDRVTITCRASQDVSTAVAWYQQKPGKAPKLLIYSASFLYSGVPSRFSGSGSGTDFTLTISSLQPEDFATYYCQQSYTTPPTFGQGTKVEIKR
B1 was tested, and the Kd [1] was 31.1 nM, the koff [1] was 0.0109 s⁻¹ and the kon [1] was 351000 M⁻¹ s⁻¹. For the same binder, the EC50 (K191A) was 14 nM, the “Relative to WT EC50 Fold Decrease” value (K191A) was 2.5 fold and the EC50 (R227A) was 25.9 nM. The “Relative to WT EC50 Fold Decrease” value (R227A) was 4.6 fold, the EC50 (D244A) was 4.7 nM and the “Relative to WT EC50 Fold Decrease” value (D244A) was 0.8 fold. The EC50 (K248A) was 196 nM, the “Relative to WT EC50 Fold Decrease” value (K248A) was 35 fold and the EC50 (D250A) was 9.4 nM. For the same binder, the “Relative to WT EC50 Fold Decrease” value (D250A) was 1.7 fold, the EC50 (Y325A) was 7.7 nM and the “Relative to WT EC50 Fold Decrease” value (Y325A) was 1.4 fold. The EC50 [2] was 2.3 nM, the “Relative to WT EC50 Fold Decrease” value [2] was 0.4 fold and the EC50 (HuHtrA1_PD(K243A)) was 64.9 nM. The “Relative to WT EC50 Fold Decrease” value (HuHtrA1_PD(K243A)) was 11.6 fold.
